System: Escherichia coli TOP10
Assay: shrunken log2 fold change of peptide-encoding DNA abundance (4.5 h post-induction vs induction); higher = less antimicrobial activity (less host growth inhibition)
Details: time post-induction: 4.5 h; library: site-saturation at positions 5, 18, 19, 20
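Further: peptides expressed intracellularly from a pBAD plasmid library in pooled LB shake-flask culture, induced with 0.3% L-arabinose, DNA abundance read by NGS, three biological replicates, DESeq2 with apeglm shrinkage.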

| Sequence | shrunken log2 fold change |
| --- | --- |
| RRIRMRPPRLPRPRPRPSSSPRP | 0.0411 |
| RRIRMRPPRLPRPRPRPSDPPRP | -0.0636 |
| RRIRGRPPRLPRPRPRPVCMPRP | 0.406 |
| RRIRHRPPRLPRPRPRPPSMPRP | -0.343 |
| RRIRHRPPRLPRPRPRPSLGPRP | 0.165 |
| RRIRVRPPRLPRPRPRPPSRPRP | 0.743 |
| RRIRRRPPRLPRPRPRPCKCPRP | -0.01 |
| RRIRIRPPRLPRPRPRPIAYPRP | -0.32 |
| RRIRPRPPRLPRPRPRPFGYPRP | -0.24 |
| RRIRSRPPRLPRPRPRPPHNPRP | -0.0338 |
| RRIRRRPPRLPRPRPRPCFLPRP | -0.269 |
| RRIRHRPPRLPRPRPRPKSEPRP | -0.00614 |
| RRIRNRPPRLPRPRPRPQGNPRP | -0.0905 |
| RRIRIRPPRLPRPRPRPHFRPRP | -0.555 |
| RRIRMRPPRLPRPRPRPLHGPRP | 0.108 |
| RRIRCRPPRLPRPRPRPKYPPRP | -0.196 |
| RRIRVRPPRLPRPRPRPWRIPRP | -0.00931 |
| RRIRERPPRLPRPRPRPKKRPRP | 0.0479 |
| RRIRCRPPRLPRPRPRPKNYPRP | -0.676 |
| RRIRHRPPRLPRPRPRPCNIPRP | -0.236 |
| RRIRSRPPRLPRPRPRPIHCPRP | -0.452 |
| RRIRYRPPRLPRPRPRPFFPPRP | -0.682 |
| RRIRDRPPRLPRPRPRPISCPRP | -0.0129 |
| RRIRCRPPRLPRPRPRPDYYPRP | -0.231 |
| RRIRVRPPRLPRPRPRPWQHPRP | 0.0882 |

| Sequence | shrunken log2 fold change |
| --- | --- |
| RRIRNRPPRLPRPRPRPCYFPRP | -0.408 |
| RRIRWRPPRLPRPRPRPEVDPRP | 1.87 |
| RRIRARPPRLPRPRPRPMAQPRP | 0.23 |
| RRIRPRPPRLPRPRPRPTSDPRP | 0.0712 |
| RRIRARPPRLPRPRPRPSIDPRP | -0.0466 |
| RRIRVRPPRLPRPRPRPSAYPRP | -0.34 |
| RRIRLRPPRLPRPRPRPTQDPRP | 0.488 |
| RRIRVRPPRLPRPRPRPQFNPRP | -0.389 |
| RRIRDRPPRLPRPRPRPKTHPRP | 0.0785 |
| RRIRTRPPRLPRPRPRPIVCPRP | -0.246 |
| RRIRQRPPRLPRPRPRPDGLPRP | -0.0465 |
| RRIRVRPPRLPRPRPRPMANPRP | 0.146 |
| RRIRERPPRLPRPRPRPQGNPRP | -0.166 |
| RRIRERPPRLPRPRPRPQMRPRP | 0.0123 |
| RRIRTRPPRLPRPRPRPEVAPRP | 0.0197 |
| RRIRIRPPRLPRPRPRPSNEPRP | -0.945 |
| RRIRRRPPRLPRPRPRPPSAPRP | 0.626 |
| RRIRSRPPRLPRPRPRPFVLPRP | -0.215 |
| RRIRLRPPRLPRPRPRPWCMPRP | -0.408 |
| RRIRARPPRLPRPRPRPAYKPRP | -0.0413 |
| RRIRSRPPRLPRPRPRPSHHPRP | -0.515 |
| RRIRPRPPRLPRPRPRPNNNPRP | -0.659 |
| RRIRWRPPRLPRPRPRPIAKPRP | -0.283 |
| RRIRKRPPRLPRPRPRPCNMPRP | -0.0983 |
| RRIRCRPPRLPRPRPRPHKAPRP | -0.253 |

| Sequence | shrunken log2 fold change |
| --- | --- |
| RRIRARPPRLPRPRPRPVCFPRP | 0.489 |
| RRIRWRPPRLPRPRPRPDVWPRP | 0.373 |
| RRIRERPPRLPRPRPRPLHIPRP | -0.404 |
| RRIRHRPPRLPRPRPRPTMGPRP | 0.144 |
| RRIRARPPRLPRPRPRPHKDPRP | 0.0954 |
| RRIRCRPPRLPRPRPRPFPWPRP | -0.361 |
| RRIRSRPPRLPRPRPRPHARPRP | 0.0679 |
| RRIRQRPPRLPRPRPRPVFLPRP | -0.218 |
| RRIRRRPPRLPRPRPRPTKVPRP | 0.118 |
| RRIRDRPPRLPRPRPRPSPYPRP | -1.07 |
| RRIRHRPPRLPRPRPRPCTTPRP | -1.7 |
| RRIRHRPPRLPRPRPRPPYSPRP | -0.418 |
| RRIRGRPPRLPRPRPRPTMLPRP | 0.52 |
| RRIRKRPPRLPRPRPRPDRCPRP | 0.00281 |
| RRIRVRPPRLPRPRPRPTEGPRP | 0.0116 |
| RRIRGRPPRLPRPRPRPNDKPRP | 0.342 |
| RRIRWRPPRLPRPRPRPFMKPRP | -0.128 |
| RRIRFRPPRLPRPRPRPIGNPRP | -0.501 |
| RRIRGRPPRLPRPRPRPSFMPRP | 0.0373 |
| RRIRLRPPRLPRPRPRPLEEPRP | 0.543 |
| RRIRLRPPRLPRPRPRPPEYPRP | -0.26 |
| RRIRYRPPRLPRPRPRPRNSPRP | 0.022 |
| RRIRFRPPRLPRPRPRPMLKPRP | -0.527 |
| RRIRYRPPRLPRPRPRPEITPRP | -0.295 |
| RRIRLRPPRLPRPRPRPWRYPRP | -0.268 |

| Sequence | shrunken log2 fold change |
| --- | --- |
| RRIRVRPPRLPRPRPRPNAFPRP | -0.0289 |
| RRIRQRPPRLPRPRPRPEMHPRP | 0.393 |
| RRIRSRPPRLPRPRPRPQDLPRP | -0.0949 |
| RRIRCRPPRLPRPRPRPLVMPRP | -0.0664 |
| RRIRFRPPRLPRPRPRPVNRPRP | 0.188 |
| RRIRCRPPRLPRPRPRPMQRPRP | 0.0282 |
| RRIRKRPPRLPRPRPRPDHFPRP | 0.0027 |
| RRIRVRPPRLPRPRPRPPITPRP | -0.117 |
| RRIRFRPPRLPRPRPRPPKTPRP | 0.0214 |
| RRIRQRPPRLPRPRPRPLCFPRP | -0.302 |
| RRIRHRPPRLPRPRPRPGVNPRP | -0.000777 |
| RRIRSRPPRLPRPRPRPGIMPRP | -0.334 |
| RRIRHRPPRLPRPRPRPMYRPRP | -0.0948 |
| RRIRPRPPRLPRPRPRPGTVPRP | -0.182 |
| RRIRVRPPRLPRPRPRPSGCPRP | -0.194 |
| RRIRLRPPRLPRPRPRPNMVPRP | -0.126 |
| RRIRCRPPRLPRPRPRPKLFPRP | 0.132 |
| RRIRCRPPRLPRPRPRPGKCPRP | -0.173 |
| RRIRHRPPRLPRPRPRPFTTPRP | -0.0869 |
| RRIRQRPPRLPRPRPRPWHSPRP | -0.00968 |
| RRIRTRPPRLPRPRPRPGHQPRP | -0.199 |
| RRIRWRPPRLPRPRPRPPCKPRP | -0.0735 |
| RRIRHRPPRLPRPRPRPKNLPRP | 0.133 |
| RRIRFRPPRLPRPRPRPSGWPRP | 0.187 |
| RRIRGRPPRLPRPRPRPFNDPRP | -0.753 |

| Sequence | shrunken log2 fold change |
| --- | --- |
| RRIRERPPRLPRPRPRPGLEPRP | -0.114 |
| RRIRNRPPRLPRPRPRPKDPPRP | 0.0665 |
| RRIRSRPPRLPRPRPRPGVQPRP | -0.0497 |
| RRIRARPPRLPRPRPRPGTSPRP | 0.24 |
| RRIRFRPPRLPRPRPRPGCHPRP | -0.141 |
| RRIRIRPPRLPRPRPRPWGEPRP | -0.0259 |
| RRIRVRPPRLPRPRPRPSWWPRP | 0.0465 |
| RRIRSRPPRLPRPRPRPMKYPRP | -0.278 |
| RRIRVRPPRLPRPRPRPPASPRP | 0.398 |
| RRIRERPPRLPRPRPRPFPGPRP | -0.0108 |
| RRIRGRPPRLPRPRPRPLIPPRP | -0.0737 |
| RRIRHRPPRLPRPRPRPRVKPRP | -0.00109 |
| RRIRLRPPRLPRPRPRPQFYPRP | -0.727 |
| RRIRARPPRLPRPRPRPEHWPRP | 0.261 |
| RRIRYRPPRLPRPRPRPPPDPRP | 0.7 |
| RRIRYRPPRLPRPRPRPILVPRP | -0.237 |
| RRIRKRPPRLPRPRPRPLVAPRP | 0.805 |
| RRIRFRPPRLPRPRPRPLQYPRP | -0.242 |
| RRIRFRPPRLPRPRPRPSMWPRP | -0.579 |
| RRIRIRPPRLPRPRPRPENAPRP | -0.0916 |
| RRIRRRPPRLPRPRPRPMDGPRP | 0.0167 |
| RRIRLRPPRLPRPRPRPGWIPRP | 0.0964 |
| RRIRHRPPRLPRPRPRPKKDPRP | -0.494 |
| RRIRNRPPRLPRPRPRPIDPPRP | -0.127 |
| RRIRRRPPRLPRPRPRPGYPPRP | 0.00327 |

From the supplement of paper PMC9112550, “Optimization of the antimicrobial peptide Bac7 by deep mutational scanning” (BMC Biology, 2022)
